# US10052415B2, “Tropoelastin for promoting endothelial cell adhesion or migration” (University of Utah Research Foundation, priority 2005, dated 2018)
# B1: tropoelastin: recombinant human tropoelastin lacking native signal sequence, 10× His tag and Factor Xa site on N-terminus, 706 amino acid residues (SEQ ID NO: 4) (protein, listed as Homo sapiens)
# chain: MGHHHHHHHHHHSSGGIEGRGGVPGAIPGGVPGGVFYPGAGLGALGGGALGPGGKPLKPVPGGLAGAGLGAGLGAFPAVTFPGALVPGGVADAAAAYKAAKAGAGLGGVPGVGGLGVSAGAVVPQPGAGVKPGKVPGVGLPGVYPGGVLPGARFPGVGVLPGVPTGAGVKPKAPGVGGAFAGIPGVGPFGGPQPGVPLGYPIKAPKLPGGYGLPYTTGKLPYGYGPGGVAGAAGKAGYPTGTGVGPQAAAAAAAKAAAKFGAGAAGVLPGVGGAGVPGVPGAIPGIGGIAGVGTPAAAAAAAAAAKAAKYGAAAGLVPGGPGFGPGVVGVPGAGVPGVGVPGAGIPVVPGAGIPGAAVPGVVSPEAAAKAAAKAAKYGARPGVGVGGIPTYGVGAGGFPGFGVGVGGIPGVAGVPGVGGVPGVGGVPGVGISPEAQAAAAAKAAKYGVGTPAAAAAKAAAKAAQFALLNLAGLVPGVGVAPGVGVAPGVGVAPGVGLAPGVGVAPGVGVAPGVGVAPGIGPGGVAAAAKSAAKVAAKAQLRAAAGLGAGIPGLGVGVGVPGLGVGAGVPGLGVGAGVPGFGAVPGALAAAKAAKYGAAVPGVLGGLGALGGVGIPGGVVGAGPAAAAAAAKAAAKAAQFGLVGAAGLGGLGVGGLGVPGVGGLGGIPPAAAAKAAKYGVAARPGFGLSPIFPGGACLGKACGRKRK
# What was measured:
# [1] = tested on: human aortic endothelial cells (HuAEC); assay: Cell adhesion assay on coated culture plates, HuAEC; format: cell-based
# Procedure: Cells were plated on culture plates coated with either 0.1% BSA (as a control), 10 ug/ml fibronectin (FN), or 10 ug/ml recombinant tropoelastin, and assayed for adherence to the coated substrate.
# 96-well plates were coated in duplicate overnight at 4° C. with 10 μg/ml collagen, fibronectin, tropoelastin, or 0.1% bovine serum albumin (BSA). Cells were harvested with 0.25% trypsin/1 mM EDTA, washed three times in adhesion buffer (0.5% BSA in basal medium), suspended at a working density of 5×10^5/ml in adhesion buffer, and then allowed to recover for 1 h at 37° C. (5% CO2). For integrin-blocking assays, 25 μg/ml anti-integrin antibodies (Chemicon, Temecula, Calif.) or control IgG (Jackson ImmunoResearch Laboratories, Inc, West Grove, Pa.) were added to the cell suspension during the recovery period. During the cell recovery, the coated 96-well plates were washed twice in dPBS and blocked for 1 h at 25° C. in 5.0% BSA (dPBS). The blocking solution was removed, and the wells were washed twice in dPBS. Recovered cells were added to the coated wells in a volume of 100 μl per well and placed at 37° C. for 30 minutes (5% CO2). Following this incubation, the assay plate was inverted and assay wells were washed twice with 100 μl dPBS to remove non-specifically adhered cells. The wells were then fixed in Zamboni fixative, stained with Gill 1 hematoxylin, and overlayed with 80% glycerol. The assay was imaged at 100× magnification, capturing 3 random fields/well on a Zeiss Axiovert 200 inverted microscope equipped with a Zeiss Axiocam digital camera. Readings represent the number of adherent cells/well (average six high powered 100× fields, three taken from each of two separate wells).
# [2] = tested on: human aortic endothelial cells (HuAEC); assay: Boyden chamber migration assay, HuAEC; format: cell-based; conditions: FIG. 3
# Procedure: Migration of HuAECs to BSA, fibronectin, and recombinant tropoelastin was measured.
# We assayed the hexamer VGVAPG (SEQ ID No. 5). This hexameric sequence is repeated multiple times within the full length tropoelastin protein. […] We additionally assayed a 17 residue C-terminal fragment of the tropoelastin protein. This 17 amino acid residue is depicted in SEQ ID NO: 6 (IFPGGACLGKACGRKRK).
# (§1) Briefly, 16 h before the assay, 70% confluent 75 cm^2 flasks of human melanoma A2058 cell (ATCC, passage 3-12) or human aortic endothelial cells (HAEC; Cambrex, passage 4-7) were kept in basal media (dMEM+0.1% BSA, or EBM-2+1% FCS, respectively). Cells were lifted with 0.25% Trypsin/1 mM EDTA, diluted in 0.5% BSA (dMEM) and washed 3 times in basal media (dMEM+0.1% BSA) or (EBM-2+0.1% FCS,) and recovered in suspension at working density (2×10^6/ml for A2058 or 1.5×10^6 HAEC) for 1 h at 37° C. (5% CO2). For migration-inhibition assays, the cells were preincubated during the recovery period for 30 minutes in 25 μg/ml anti-integrin antibodies (Chemicon, Temecula, Calif.) or control IgG (Jackson ImmunoResearch, Inc.). All migration assays were performed in triplicate in a 48-well Boyden chamber apparatus (NeuroProbe, Cabin John, Md.). The recovered cells were added to the bottom chambers in a volume of 30 μl. The wells were overlayed with an 8 μm-pore polycarbonate membrane (NeuroProbe, Cabin John, Md.) and coated with 100 μg/ml Rat tail collagen (Trevigen, Gaithersburg, Md.) for A2058 cells or acetylated 1% gelatin from porcine skin (Sigma, St. Louis, Mo.) for HAEC. The apparatus was assembled and stored inverted at 37° C. (5 CO2) for a 2 h adhesion-period. The apparatus was re-inverted and 52 μl of the chemoattractants, 10 mg/ml Fibronectin, 200 ng/ml Tropoelastin, 10 μM elastin-derived peptides; VGVAPG (SEQ ID No. 5), and IFPGGACLGKACGRKRK (SEQ ID No. 6 (Cterm peptide) or 0.1% BSA/dMEM (diluent, random migration control), were added to the upper chambers and the migration was allowed to proceed for 2 h in a humidified incubator at 37° C. (5% CO2). The membranes were then removed, fixed in methanol, stained with a Hema 3 stain set (Fisher Scientific, Pittsburgh, Pa.) and mounted migrated-side down to a 50×75 mm glass slide. Before 90% mounting medium (in xylenes) was applied, the non-migrated cells were removed from the exposed, non-migrated face of the membrane with a moistened swab. Readings represent the number of cells migrating through the membrane (the sum of two high power X 20 fields/well, averaged for each sextuplicate-well set).
# [3] = tested on: A2058 human melanoma cells; assay: Boyden chamber migration assay, A2058 cells; format: cell-based; conditions: FIG. 5
# Procedure: as §1, with “The apparatus was re-inverted and 52 μl of the chemoattractants, 10 mg/ml Fibronectin, 200 ng/ml Tropoelastin, 10 μM elastin-derived peptides; VGVAPG (SEQ ID No. 5), and IFPGGACLGKACGRKRK (SEQ ID No. 6 (Cterm peptide) or 0.1% BSA/dMEM (diluent, random migration control), were added to the upper chambers and the migration was allowed to proceed for 2 h in a humidified incubator at 37° C. (5% CO2). The membranes were then removed, fixed in methanol, stained with a Hema 3 stain set (Fisher Scientific, Pittsburgh, Pa.) and mounted migrated-side down to a 50×75 mm glass slide. Before 90% mounting medium (in xylenes) was applied, the non-migrated cells were removed from the exposed, non-migrated face of the membrane with a moistened swab.” left out
# [4] = tested on: endothelial progenitor cells; assay: Adhesion assay on coated stainless steel disks, endothelial progenitor cells; format: cell-based, human
# Procedure: We conducted experiments to assess whether tropoelastin promoted the adhesion of endothelial progenitor cells. Tropoelastin was covalently conjugated to a stainless steel disk approximately 6 mm in diameter. As a control, anti-CD34 antibody (known to promote endothelial cell adhesion) was covalently conjugated to similar stainless steel disks. Endothelial progenitor cells were cultured with these coated disks, and adhesion of the cells to the coated disks was assayed.
# Adhesion assays on 6 mm stainless steel disks (Orbus Medical Technologies, Ft Lauderdale, Fla.) pre-coated with anti-CD34 antibody, tropoelastin, coating vehicle, or uncoated metal were performed in a similar fashion as described above, with the following modifications: 48-well plates were used to hold the disks during the assay period to facilitate manipulation of the disks and twice the volume of cell suspension was applied (200 μl/well). Exemplary amounts of total protein covalently attached to each disk were approximately 100 micrograms. Post-adhesion, the wells were washed twice in dPBS, using a swirling motion to dislodge non-specifically adhered cells. […]
molecule,measurement,setting,value
B1,"HuAEC adhesion, number of cells bound/well, relative to other coats","[1]; FIG. 2, coated wells",comparable to that observed with fibronectin or collagen
same,adhesion of HuAEC to the coated substrate,"[1]; culture plates coated with 10 ug/ml protein, 0.1% BSA control",adhered to tropoelastin
same,level of HuAEC migration relative to comparator,[2],comparable to that of fibronectin
same,migration of HuAECs,"[2]; 200 ng/ml Tropoelastin, 10 μM peptides, BSA control",promoted endothelial cell migration
same,level of A2058 migration compared among tropoelastin and fragments,[3],promoted migration of A2058 cell at comparable levels
same,adhesion of endothelial progenitor cells to coated stainless steel disks,"[4]; FIG. 7, protein covalently conjugated to 6 mm disk",promoted adhesion of human endothelial cells to the metal device
same,cell adhesion compared to polysaccharide-coated control disks or to bare metal disks,[4]; coated metal disks,significant increase in cell adhesion
